US20080267949A1, “Peptides capable of binding to serum proteins” (Ablynx N.V., priority 2006, published 2008)
Bridge positions count the residues as written; N and C are the ends. Ends that are not written are not given here.

Assays:
[1] = biological target: T1, human serum albumin (HSA) (Homo sapiens, UniProt P02768); experiment: Phage binding assay: peptide expressed on pIII of M13 phage, on coated HSA (anti-M13 detection, Odyssey read-out); details: for Binding to HSA (Example 7, VHH fusions on phage): 1/2 dilution series starting with 10^12 phages/mL; for Binding to HSA (Example 4): 1/2 dilution series starting with 7.5×10^11 phages/mL; for Binding to HSA (Example 5, cross-reactivity): different phage concentrations
T1 construct: purchased Sigma A5763
Procedure: (§1) After two selection rounds, monoclonal phage were screened for binding on HSA versus negative control antigen, ovalbumin (A5378, Sigma). Wells of a Maxisorp microtiter plate (Nunc) were coated using 10 μg/mL HSA or ovalbumin and blocked with SuperBlock T20 PBS Blocking Buffer (Pierce) to prevent non-specific binding. Phages, produced in 96-well plate, were diluted 1/10 in 1:1 (v:v) Superblock T20 PBS Blocking Buffer:PBS+0.05% Tween-20 and incubated on both HSA and ovalbumin. Bound phages were detected using anti-M13 (GE Healthcare) and goat anti-mouse IRDye700 (Rockland) and signals were read-out on Odyssey (LI-COR Biosciences). […] Both ‘hits’ were selected from the same library, i.e. originating from llama 117 in the non-constrained format. […] This peptide is referred to as 17D12. Its full amino acid sequence is given in SEQ ID NO: 1, and its encoding nucleotide sequence is given in SEQ ID NO:2. The amino acid sequence of the CDR3 loop is given in SEQ ID NO:3.
(§2) The phage binding assay was performed essentially as described in example 3. Phages, produced in 10 mL culture volume, were incubated on both HSA and ovalbumin in a ½ dilution series, starting with 7.5×10^11 phages/mL. […] Non-specific binding to ovalbumin is slightly higher for the constrained truncated peptide.
(§3) Binding of 17D12, as selected from primary screening after 2 selection rounds on HSA, to serum albumin of different species [mouse serum albumin (MSA, A3559, Sigma), cynomolgus serum albumin (CSA, in-house production), bovine serum albumin (BSA, A6003, Sigma) and HSA] and to negative control antigens [ovalbumin, human tumor necrosis factor α (TNF, in-house production)] was assessed using different phage concentrations. Additionally, similar binding studies were performed with two truncated variants of 17D12. Both peptides, i.e. 17D12-CDR3-NC (SEQ ID NO: 26) and 17D12-CDR3-C (SEQ ID NO;27), lack the flanking FR residues of 17D12 and the former is a non-constrained loop, whereas the latter is constrained (FIG. 4).
(§4) The phage binding assay was performed essentially as described in example 4.
(§5) The phage binding assay to HSA and ovalbumin was performed essentially as described in example 4. Phages, produced in 10 mL culture volume, were incubated on both HSA and ovalbumin in a ½ dilution series, starting with 10^12 phages/mL.

ovalbumin = biological target: T2, ovalbumin (Gallus gallus, UniProt P01012); experiment: Phage binding assay on coated negative control antigen ovalbumin; details: for Binding to negative control ovalbumin (Example 7): 1/2 dilution series starting with 10^12 phages/mL; for Binding to negative control ovalbumin (Example 4): 1/2 dilution series starting with 7.5×10^11 phages/mL; for Non-specific binding to irrelevant protein ovalbumin (Example 5): different phage concentrations
T2 construct: purchased Sigma A5378
T2 sequence (P01012 1-386): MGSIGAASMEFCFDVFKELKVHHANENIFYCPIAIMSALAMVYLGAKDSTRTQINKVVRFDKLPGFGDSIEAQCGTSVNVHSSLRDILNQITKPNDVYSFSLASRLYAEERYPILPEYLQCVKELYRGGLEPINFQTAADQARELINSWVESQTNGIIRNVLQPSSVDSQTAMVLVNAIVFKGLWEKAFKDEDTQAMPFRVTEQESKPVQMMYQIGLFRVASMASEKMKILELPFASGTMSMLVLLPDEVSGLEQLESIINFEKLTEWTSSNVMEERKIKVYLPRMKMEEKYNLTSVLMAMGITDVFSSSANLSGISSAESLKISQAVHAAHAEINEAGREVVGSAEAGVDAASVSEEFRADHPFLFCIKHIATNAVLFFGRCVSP
Procedure: as §1, §2, §3, §4, §5

[2] = biological target: T3, cynomolgus serum albumin (CSA) (Macaca fascicularis, UniProt A2V9Z4); experiment: Phage binding assay, cross-reactivity to cynomolgus serum albumin; details: different phage concentrations
T3 construct: made in house
Procedure: as §1, §3, §4

[3] = biological target: T4, mouse serum albumin (MSA) (Mus musculus, UniProt P07724); experiment: Phage binding assay, cross-reactivity to mouse serum albumin; details: different phage concentrations
T4 construct: purchased Sigma A3559
Procedure: as §1, §3, §4

[4] = biological target: T5, bovine serum albumin (BSA) (Bos taurus, UniProt P02769); experiment: Phage binding assay, cross-reactivity to bovine serum albumin; details: different phage concentrations
T5 construct: purchased Sigma A6003
Procedure: as §1, §3, §4

[5] = biological target: T6, human tumor necrosis factor α (TNF) (Homo sapiens, UniProt P01375); experiment: Phage binding assay, specificity against negative control antigen TNF; details: different phage concentrations
T6 construct: made in house
Procedure: as §1, §3, §4

[6] = biological target: T7, ovalbumin (negative control antigen) (UniProt P01012 2-386); experiment: phage binding assay: ovalbumin coated on Maxisorp, M13 phage in 1/2 dilution series from 10^12 phages/mL, Odyssey intensity
T7 construct: Bought protein
T7 sequence (looked up): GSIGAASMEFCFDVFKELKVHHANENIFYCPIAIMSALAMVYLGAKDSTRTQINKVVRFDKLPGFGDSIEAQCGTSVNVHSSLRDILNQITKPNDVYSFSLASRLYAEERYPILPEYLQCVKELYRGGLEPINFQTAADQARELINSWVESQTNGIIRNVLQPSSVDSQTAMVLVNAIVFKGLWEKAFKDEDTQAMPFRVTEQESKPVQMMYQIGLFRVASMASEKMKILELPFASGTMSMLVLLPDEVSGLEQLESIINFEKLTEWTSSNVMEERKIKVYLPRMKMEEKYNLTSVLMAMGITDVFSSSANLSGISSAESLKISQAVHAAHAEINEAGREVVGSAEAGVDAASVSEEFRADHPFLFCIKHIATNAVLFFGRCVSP
Procedure: The phage binding assay to HSA and ovalbumin was performed essentially as described in example 4. Phages, produced in 10 mL culture volume, were incubated on both HSA and ovalbumin in a ½ dilution series, starting with 10¹² phages/mL. Dose-dependent binding to HSA was retained upon fusion of the peptide 17D12 at the C-terminus of a non-albumin binding intact VHH in the presence or absence of a GlySer linker (FIG. 9).

mouse serum albumin = biological target: T8, mouse serum albumin (mouse, UniProt P07724 25-608); experiment: phage binding assay on coated Maxisorp wells, 5 phage dilutions per peptide, Odyssey image
T8 construct: also called MSA
Procedure: as §3
(§6) The phage binding assay was performed essentially as described in example 4. Full length 17D12 peptide as well as truncated peptides, 17D12-CDR3-NC and 17D12-CDR3-C, bind dose-dependently to HSA and CSA, whereas reactivity to MSA and BSA was not apparent in the assay performed (FIG. 6). There is no significant non-specific binding of 17D12 and 17D12-CDR3-NC to irrelevant proteins tested (ovalbumin and TNF). In contrast, there is a subtle degree of non-specific binding with the constrained truncated peptide.

bovine serum albumin = biological target: T9, bovine serum albumin (bovine, UniProt P02769 25-607); experiment: as above
T9 construct: also called BSA
Procedure: as §3, §6

cynomolgus serum albumin = biological target: T10, cynomolgus serum albumin (cynomolgus, UniProt A2V9Z4 25-608); experiment: phage binding assay on coated Maxisorp wells, 5 phage dilutions per peptide (concentrations not given), Odyssey image
T10 construct: also called CSA; cynoSA
Procedure: as §3, §6

human serum albumin = biological target: T11, human serum albumin (human, UniProt P02768 25-609); experiment: phage binding assay: 10 µg/mL HSA coated on Maxisorp, M13 phage displaying the peptide on pIII in 1/2 dilution series, anti-M13 + goat anti-mouse IRDye700, Odyssey intensity
T11 construct: Bought protein; also called HSA
Procedure: After two selection rounds, monoclonal phage were screened for binding on HSA versus negative control antigen, ovalbumin (A5378, Sigma). Wells of a Maxisorp microtiter plate (Nunc) were coated using 10 μg/mL HSA or ovalbumin and blocked with SuperBlock T20 PBS Blocking Buffer (Pierce) to prevent non-specific binding. Phages, produced in 96-well plate, were diluted 1/10 in 1:1 (v:v) Superblock T20 PBS Blocking Buffer:PBS+0.05% Tween-20 and incubated on both HSA and ovalbumin. Bound phages were detected using anti-M13 (GE Healthcare) and goat anti-mouse IRDye700 (Rockland) and signals were read-out on Odyssey (LI-COR Biosciences). […] This peptide is referred to as 17D12. Its full amino acid sequence is given in SEQ ID NO: 1, and its encoding nucleotide sequence is given in SEQ ID NO:2. The amino acid sequence of the CDR3 loop is given in SEQ ID NO:3.
The phage binding assay was performed essentially as described in example 3. Phages, produced in 10 mL culture volume, were incubated on both HSA and ovalbumin in a ½ dilution series, starting with 7.5×10¹¹ phages/mL. […] Non-specific binding to ovalbumin is slightly higher for the constrained truncated peptide.

T3 sequence (A2V9Z4 25-608): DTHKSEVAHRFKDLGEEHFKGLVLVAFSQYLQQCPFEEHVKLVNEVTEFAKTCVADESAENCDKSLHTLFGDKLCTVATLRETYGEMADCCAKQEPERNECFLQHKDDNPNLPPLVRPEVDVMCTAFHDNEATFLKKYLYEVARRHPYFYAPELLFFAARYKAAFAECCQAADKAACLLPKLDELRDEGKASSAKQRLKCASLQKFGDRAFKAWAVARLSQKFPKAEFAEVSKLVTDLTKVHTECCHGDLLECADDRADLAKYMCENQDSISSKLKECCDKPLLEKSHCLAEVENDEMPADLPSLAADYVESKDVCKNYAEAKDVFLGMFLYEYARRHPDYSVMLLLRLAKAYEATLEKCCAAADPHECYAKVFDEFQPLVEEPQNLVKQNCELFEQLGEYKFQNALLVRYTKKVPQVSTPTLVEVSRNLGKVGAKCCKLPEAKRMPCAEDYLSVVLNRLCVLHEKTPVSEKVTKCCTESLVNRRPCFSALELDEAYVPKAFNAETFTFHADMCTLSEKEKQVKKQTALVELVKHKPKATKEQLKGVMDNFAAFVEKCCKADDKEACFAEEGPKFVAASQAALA
T4 sequence (P07724 25-608): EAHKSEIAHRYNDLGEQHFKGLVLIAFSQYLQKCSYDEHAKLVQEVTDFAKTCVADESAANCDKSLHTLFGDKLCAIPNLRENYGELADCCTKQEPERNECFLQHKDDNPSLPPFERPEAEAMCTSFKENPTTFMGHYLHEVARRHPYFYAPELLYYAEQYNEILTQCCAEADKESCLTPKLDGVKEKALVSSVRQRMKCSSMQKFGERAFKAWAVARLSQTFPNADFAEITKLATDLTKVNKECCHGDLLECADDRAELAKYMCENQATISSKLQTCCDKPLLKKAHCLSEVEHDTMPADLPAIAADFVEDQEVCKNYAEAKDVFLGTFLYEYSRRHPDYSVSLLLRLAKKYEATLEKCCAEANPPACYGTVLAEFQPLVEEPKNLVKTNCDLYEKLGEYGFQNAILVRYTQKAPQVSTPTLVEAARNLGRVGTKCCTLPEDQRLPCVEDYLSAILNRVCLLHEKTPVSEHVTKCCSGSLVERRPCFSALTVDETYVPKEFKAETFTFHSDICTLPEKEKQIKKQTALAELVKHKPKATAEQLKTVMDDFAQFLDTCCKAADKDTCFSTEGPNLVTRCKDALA
T6 sequence (P01375 77-233 limits assumed): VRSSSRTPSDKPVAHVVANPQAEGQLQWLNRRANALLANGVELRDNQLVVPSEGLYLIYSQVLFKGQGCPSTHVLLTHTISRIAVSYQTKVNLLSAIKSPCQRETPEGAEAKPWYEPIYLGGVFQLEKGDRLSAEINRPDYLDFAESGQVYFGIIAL
T5 sequence (P02769 25-607): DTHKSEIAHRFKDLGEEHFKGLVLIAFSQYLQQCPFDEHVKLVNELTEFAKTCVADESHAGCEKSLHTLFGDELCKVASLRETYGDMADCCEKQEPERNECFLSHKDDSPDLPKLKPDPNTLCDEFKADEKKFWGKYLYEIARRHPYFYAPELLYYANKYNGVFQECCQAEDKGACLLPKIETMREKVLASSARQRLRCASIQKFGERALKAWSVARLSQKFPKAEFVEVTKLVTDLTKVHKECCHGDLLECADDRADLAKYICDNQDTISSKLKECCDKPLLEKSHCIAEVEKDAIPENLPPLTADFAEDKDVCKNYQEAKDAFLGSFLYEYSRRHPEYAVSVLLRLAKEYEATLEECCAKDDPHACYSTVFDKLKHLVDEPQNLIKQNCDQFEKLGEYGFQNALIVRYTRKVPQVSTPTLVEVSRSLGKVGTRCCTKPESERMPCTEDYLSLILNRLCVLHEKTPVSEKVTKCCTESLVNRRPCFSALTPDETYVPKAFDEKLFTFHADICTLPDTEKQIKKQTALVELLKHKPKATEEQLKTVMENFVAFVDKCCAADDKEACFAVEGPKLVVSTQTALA
T10 sequence (A2V9Z4 25-608 limits assumed): as the sequence (A2V9Z4 25-608) above
T8 sequence (P07724 25-608 limits assumed): as the sequence (P07724 25-608) above
T9 sequence (P02769 25-607 limits assumed): as the sequence (P02769 25-607) above

2D3-17D12(S): 17D12 (FR3 Cys replaced with Ser) fused at C-terminus of VHH 2D3 without linker, on M13 phage (DTAVYYSNAAASYSDYDVFGGGTDFGPWGQGTQV; not fully specified (N-terminus); also: displayed on M13 phage)
Binding to HSA (Example 7, VHH fusions on phage) [1]: bind dose-dependently to HSA | Binding to negative control ovalbumin (Example 7) (ovalbumin): not to negative control peptide, ovalbumin

2D3-GlySer-17D12(S): 17D12 (FR3 Cys replaced with Ser) fused at C-terminus of VHH 2D3 via Gly4Ser-Gly3Ser linker, on M13 phage (GGGGSGGGSDTAVYYSNAAASYSDYDVFGGGTDFGPWGQGTQV; not fully specified (N-terminus); also: displayed on M13 phage)
Binding to HSA (Example 7, VHH fusions on phage) [1]: bind dose-dependently to HSA | Binding to negative control ovalbumin (Example 7) (ovalbumin): not to negative control peptide, ovalbumin

aaasysdydvfgggtdfgpa (AAASYSDYDVFGGGTDFGPA; also: displayed on M13 pIII) [17D12-CDR3-NC, truncated 17D12 lacking flanking FR residues, non-constrained loop, on M13 phage]
Binding to HSA (Example 4) [1]: bind dose-dependently to HSA | Binding to HSA (Example 5, cross-reactivity) [1]: bind dose-dependently | Binding to negative control ovalbumin (Example 4) (ovalbumin): not to negative control peptide, ovalbumin | Non-specific binding to irrelevant protein ovalbumin (Example 5) (ovalbumin): no significant non-specific binding | Binding to CSA [2]: bind dose-dependently | Reactivity to MSA [3]: not apparent | Reactivity to BSA [4]: not apparent | Non-specific binding to irrelevant protein TNF [5]: no significant non-specific binding

caaasysdydvfgggtdfgpac (CAAASYSDYDVFGGGTDFGPAC; disulfide 1-22 (inferred); also: displayed on M13 phage pIII) [17D12-CDR3-C, truncated 17D12 lacking flanking FR residues, constrained loop, on M13 phage]
Binding to HSA (Example 4) [1]: bind dose-dependently to HSA | Binding to HSA (Example 5, cross-reactivity) [1]: bind dose-dependently | Binding to negative control ovalbumin (Example 4) (ovalbumin): not to negative control peptide, ovalbumin | Non-specific binding to irrelevant protein ovalbumin (Example 5) (ovalbumin): subtle degree of non-specific binding | Binding to CSA [2]: bind dose-dependently | Reactivity to MSA [3]: not apparent | Reactivity to BSA [4]: not apparent | Non-specific binding to irrelevant protein TNF [5]: subtle degree of non-specific binding

B1: 2D3-GlySer-17D12(S): 17D12 peptide (FR3 Cys replaced with Ser) fused at the C-terminus of VHH 2D3 via a Gly4Ser-Gly3Ser linker, expressed on pIII of M13 phage (other, not shown: large carriers)
chain: GGGGSGGGSDTAVYYSNAAASYSDYDVFGGGTDFGPWGQGTQV
modifications: not fully specified (N-terminus); also: fused to C-terminus of VHH 2D3, displayed on M13 pIII
notes: VHH-peptide fusion tested as phage; also called VHH-GlySer-17D12(S)
binding result [6]: no binding (tested: 100 x10^10 phage/mL)

B2: 17D12-CDR3-C, constrained truncated CDR3 loop of 17D12 without flanking FR, expressed on pIII of M13 phage (peptide, not shown: large carriers)
peptide: CAAASYSDYDVFGGGTDFGPAC
modifications: disulfide 1-22; not fully specified
notes: Tested as phage; also called constrained truncated peptide
binding result (mouse serum albumin): no binding | binding result (bovine serum albumin): no binding | binding result (cynomolgus serum albumin): binds | EC50 (read off the curve) (human serum albumin): ~6e+10 phage/mL

B3: 2D3-17D12(S): 17D12 peptide (FR3 Cys replaced with Ser) fused at the C-terminus of VHH 2D3 without linker, expressed on pIII of M13 phage (other, not shown: large carriers)
chain: DTAVYYSNAAASYSDYDVFGGGTDFGPWGQGTQV
modifications: not fully specified (N-terminus); also: fused to C-terminus of VHH 2D3, displayed on M13 pIII
notes: VHH-peptide fusion tested as phage; also called VHH-17D12(S)
binding result [6]: no binding (tested: 100 x10^10 phage/mL)
